Positions count from the first letter of the chain named.

One test concerns the target T1, PB_(Cdc24) (Saccharomyces cerevisiae, UniProt P11433 668-854).
T1 construct: also called Cdc24 PB domain; source: E. coli BL21DE3, purified (IMAC, optional size exclusion chromatography)
T1 sequence (looked up): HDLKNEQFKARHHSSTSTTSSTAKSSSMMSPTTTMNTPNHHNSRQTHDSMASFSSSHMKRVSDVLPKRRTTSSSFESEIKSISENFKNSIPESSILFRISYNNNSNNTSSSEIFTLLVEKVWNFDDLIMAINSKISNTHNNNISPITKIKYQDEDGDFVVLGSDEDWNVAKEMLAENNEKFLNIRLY
Kind of test: SPR; Biacore X100; PB_(Bem1)-SNAP labelled with BG-Biotin and captured on a CM5 chip coated with anti-biotin antibody; PB_(Cdc24) as analyte; HBSEP (10 mM HEPES, 150 mM NaCl, 3 mM EDTA, 0.05% Tween 20, pH 7.4). Conditions: both partners purified. On the technique in general: In SPR one partner is held on a chip, and binding of the other changes the refractive index at the surface.

A further test has as its target T2, PB_(Cdc24)(D833G) (Saccharomyces cerevisiae, UniProt P11433 668-854, D833G).
T2 construct: also called D833G mutant; source: E. coli BL21DE3, purified (IMAC, optional size exclusion chromatography)
T2 sequence (looked up): T1 sequence (looked up) with D166G
The description is as above. Conditions: both partners purified.

B1: PB_(Bem1)-SNAP (domain or fragment, Saccharomyces cerevisiae, UniProt P29366 431-551, looked up)
chain: ASQTSNFASTNQDNTLTGEDLKLNKKLSDLSLSGSKQAPAQSTSGLKTTKIKFYYKDDIFALMLKGDTTYKELRSKIAPRIDTDNFKLQTKLFDGSGEEIKTDSQVSNIIQAKLKISVHDI
modifications: BG-Biotin covalently on the SNAP tag
notes: Bem1, S. cerevisiae, PB domain, residues 431-551; also called Bem1 PB domain; source: E. coli BL21DE3, purified (IMAC, optional size exclusion chromatography)
As for B1, the dissociation constant Kd in the test with PB_(Cdc24) was 21 nM; with PB_(Cdc24)(D833G) it was above 3200 nM.

One may read the Kd as the concentration at which binding is half-saturated.

These data come from article PMC5015938, “A Split-Ubiquitin Based Strategy Selecting for Protein Complex-Interfering Mutations” (G3: Genes|Genomes|Genetics, 2016).
